# ± gives the standard error. This sample holds only a part of the variants without activity.
# B1: glmS ribozyme (parent)
# chain: AUAAAAGCGCCAGAACUACAGAAAUGUAGUUGACGAGGAGGAGGUUUAUCGAAUUUUCGGCGGAUGCCUCCAAA
# Assays:
# Settings in all cases: with glucosamine-6-phosphate
# [1] = variants of: B1; experiment: self-cleavage kobs at 160 uM GlcN6P; higher = faster cleavage; RNA array
# Outline: (§1)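 A hybridised Cy3 probe tracked barcoded ribozyme variants, transcribed in situ by E. coli RNA polymerase on sequenced MiSeq chips, at 37 °C. The variants received 40 μM to 10 mM glucosamine-6-phosphate in HEPES/KCl/Mg(OAc)2 buffer. kobs came from decay fits and kcat and KM from weighted Michaelis–Menten fits.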
# [2] = variants of: B1; experiment: self-cleavage kobs at 640 uM GlcN6P; higher = faster cleavage; RNA array
# Outline: as §1
# [3] = variants of: B1; experiment: self-cleavage kobs at 2500 uM GlcN6P; higher = faster cleavage; RNA array
# Outline: as §1
# [4] = variants of: B1; experiment: self-cleavage kobs at 10000 uM GlcN6P; higher = faster cleavage; RNA array
# Outline: as §1
Variant,self-cleavage kobs at 160 uM GlcN6P [1] [s⁻¹],self-cleavage kobs at 640 uM GlcN6P [2] [s⁻¹],self-cleavage kobs at 2500 uM GlcN6P [3] [s⁻¹],self-cleavage kobs at 10000 uM GlcN6P [4] [s⁻¹]
AUAAAAGCGCCAGACCUACAGAAAUGUAUUUGACGAGGAGGAGGUUUAUCGAAUUUUCGGCGGAUGACUCCAAA [A15C G29U C67A],9.38e-05 ± 3.4e-05,0.000156 ± 2.9e-05,0.000163 ± 4.2e-05,–
AUAAAAGCGCCAGAACUACAGAAAUGUAGUUGACUAGGAGGAGGUUUAUCGAAUUUUCGGCGGUUGCCUCCAAA [G35U A64U],< 1e-05,< 1e-05,< 1e-05,< 1e-05
AUAAAAGCGCCAGAACUACAGAAAUGUAGUUGACUAGGAGGAGGUUUAUCAAAUUUUCGGCGGAUGCCUCCAAA [G35U G51A],< 1e-05,< 1e-05,–,< 1e-05
AUAAAAGCGCCAGAACUACAGAAAUGUAGUUGGCGAGGUGGAGGUUUAUCGAAUUUUCGGCGGUUGCCUGCAAA [A33G A39U A64U C70G],< 1e-05,–,< 1e-05,–
AUAAAAGCGCCAGAACUACAGAAAUGUAGGUAACGAGGAGGAGGUUUGUCGAAUUUUCGGCCGAUGCCUCCAAA [U30G G32A A48G G62C],< 1e-05,< 1e-05,< 1e-05,–
AUAAAAGCGCCAGAACUACAGAAAUGUACUUCACGAUGAGGAGGGUUAUCGAAUUUUCGGCGGAUGCCUCCAAA [G29C G32C G37U U45G],< 1e-05,< 1e-05,< 1e-05,–
AUAAAAGCGCCAGAACUACAGAAAUGUAGUAGACCAGGAGGAGGUUUAUCGAAAUUUCGGCGGUUGCCUCCAAA [U31A G35C U54A A64U],< 1e-05,–,< 1e-05,–
AUAAAAGCGCCAGAACUACAGAAAUGUAGUUGACGAGGAGGAGGGUUAUCGAAUUUUCGGAGGAUGCCUCCAAA [U45G C61A],< 1e-05,< 1e-05,< 1e-05,< 1e-05
AUAAAAGCGCCAGACCUACAGAAAUGUAGUUGACGAGGAGGAGGUUUAUGGAAUUUUCGGCGGAUGCCUCCAAA [A15C C50G],0.000107 ± 3.2e-05,–,0.000205 ± 5.8e-05,–
AUAAAAGCGCCAGAACUACAGAAAUGUAGUUGACGAGGAGGAGGUUUAUCGAAUUUUCGUCGGAUGCUUCCAAA [G60U C68U],< 1e-05,–,–,< 1e-05
AUAAAAGCGCCAGAGCUACAGAAAUGUAGUUGACGAGAAGGAGGUUUAUCGAAUUUUCGUCGGAUGCCUGCAAA [A15G G38A G60U C70G],< 1e-05,–,< 1e-05,–
AUAAAAGCGCCAGAACUACAGAAAUGUAGUUGACGAGGAGGAAGAUUAUCGAAUUUUCGGGGGAUGCCUCCAAA [G43A U45A C61G],< 1e-05,< 1e-05,–,–
AUAAAAGCGCCAGAACUACAGAAAUGUAGUUGACCAGGAGGAGGUUUAUCGAAUUUUCGGCUGAUGCCUCCAAA [G35C G62U],< 1e-05,< 1e-05,< 1e-05,< 1e-05
AUAAAAGCGCCAGAACUACAGAAAUGUAGUUGACGAGGAGGAGGUGUAUCGAAUUUUGGGCGGAUGCCGCCAAA [U46G C58G U69G],6.07e-05 ± 2.5e-05,–,–,–
AUAAAAGCGCCACCACUACAGAAAUGUAGUUGACGAGGAGGAGGUUUAUCGAAUGUUCUGCGGAUGCCUCCAAA [G13C A14C U55G G59U],< 1e-05,< 1e-05,–,–
AUAAAAGCGCGAGAACUACAGAAAUGUAGUCGACGAGGAGGAGGUUUAUCGAAUUUUCGGCGGAUGCCUCUAAA [C11G U31C C71U],< 1e-05,–,< 1e-05,–
AUAAAAGCGCCAGAAGUACAGAAAUGUAGUUGACGAGGAGGAGGUUUGUCGAAUUUUCGGCGGAUGCAUCGAAA [C16G A48G C68A C71G],5.61e-05 ± 2.2e-05,0.000118 ± 3.8e-05,–,–
AUAAAAGCGCCAGAACUACAGAAAUGUAGUUGACGAGGAAGAGGUUUAUCGAAUAUUCGGCGGAUGCCUCCAAA [G40A U55A],0.000151 ± 5.3e-05,0.00156 ± 0.0003,0.000842 ± 0.00022,–
AUAAAAGGGCCAGAAAUACAGAAAUGUAGUUGACGAGGAGGAGGUUUAUCGAAUUUUCGGCGGAUGCCUCCAAA [C8G C16A],< 1e-05,< 1e-05,< 1e-05,< 1e-05
AUAAACGCGCCAGAACUACAGAAAUGUAGUUGACGAGGAGGAGUUUUAUCGAAUUUUCGGCGGAUGCCUCCAAA [A6C G44U],< 1e-05,< 1e-05,< 1e-05,< 1e-05
AUAAAAGCGCCAGUACUACAGAAAUGUAGUUGACGAGGAGGAGGUUUACCGAAUUUGCGGCGGAUGCCUGCAAA [A14U U49C U57G C70G],9.25e-05 ± 2.7e-05,6.79e-05 ± 2.7e-05,6.68e-05 ± 2.2e-05,–
AUAAAAGCGCCAGAACUACAGAAAUGUAGUUGACGAGGAGGAAGUUUAUCGAAUUUUCAGCGGUUGCCUCCAAA [G43A G59A A64U],< 1e-05,–,–,< 1e-05
AUAAAUGCACCAGAACUACAGAAAUGUAGUUGACGAGGAGGAGGUUUACCGAAUUUUCGGCGGAUGCCUCCAAA [A6U G9A U49C],< 1e-05,–,–,–
AUAAAAGCGCCUGAACUACAGAAAUGUAGUUGACGAGGAGGAGGUUUAUCAAAUCUUCGGCGGAUGCCUCCAAA [A12U G51A U55C],< 1e-05,–,–,–
AUAAAUGCGCCAGAACUACAGAAAUGUAGGUGACGAGGAGGAGUUUUAUCGACUUUUCGGCGGAUGCCUCCAAA [A6U U30G G44U A53C],< 1e-05,< 1e-05,< 1e-05,–
AUAAAAGCGCCAGAGCUACAGAAAUGUAGUUGACGAGGAGGAGGUUUAUCGAAUUUUCGGCGAAUGCCUCCAAA [A15G G63A],< 1e-05,< 1e-05,< 1e-05,< 1e-05
AUAAAAGCGCCAAAACUACAGAAAUGUAGUUGACGAGGAGGAAGUUUAUCGAAUUUUCGGCGGAUGCCUCCAAA [G13A G43A],< 1e-05,< 1e-05,–,< 1e-05
AUAAAAGCGCCAGAACUACAGAAAUGUAGUUGACGUGGAUGAGGUUUAUCGAAUUUUCGGCGGAUGCCUCCAAA [A36U G40U],< 1e-05,< 1e-05,–,< 1e-05
AUAAAAGCGCCAGAACUACAGAAAUGUAAUUGACGAGGUGGAUGUUUAUCGAAUUUUCGGCGGAUGCCUCCAAA [G29A A39U G43U],< 1e-05,–,–,–

# — the supplement of paper PMC7125110
